Data on two molecules can be found in patent publication US20120230999A1 (ARIZONA BOARD OF REGENTS A BODY CORPORATE OF THE STATE OF …, published 2012).

The target of test [1] is T1, internally quenched fluorogenic α-secretase substrate … (SMILES …).
T1 peptide: Ac-RE(EDANS)VHHQKLVFK(DABCYL)R-OH
The experiment in a line: cell-based or functional assay.

Test [2] addresses T1, internally quenched fluorogenic …. Nature of the test: cell-based or functional assay.

The star is where a group is joined. DABCYL = CN(C)c1ccc(/N=N/c2ccc(C(=O)*)cc2)cc1; EDANS = O=S(=O)(O)c1cccc2c(NCCN*)cccc12

B1: ASec-1A scFv (scFv)
scFv: DVLMETTQTPLTLSVTIGQPASISCKSSQSLLHTDGKTYLIWLLQRPGQSPKRLIYLVSKLDSGVPDRFTGSGSGTDFTLKISRVEAEDLGVYYCWQGTHFPQTFGGGTKLEIKRADAAPGGGGSGGGGSGGGGSGSESGGGLVKPGGSLKLSCAASGFTFSIYGMETFWFRQTPEKRLEWVATISGGDTYTYYPDSVKGRFTISRDNAKNNLFLQMETSSLRSEDTPLYFCGRNHQITMETWGQGTLVTVSA
As for B1, the “specificity constant (kcat/KM) relative to parent ASec-1 scFv” value in test [1] is 5.6 fold. Further, in test [2], the “kcat (per min), hydrolysis of α-secretase Aβ fluorogenic substrate” value was determined as 34.8 per min and the “kcat/Km (µM/min), hydrolysis of α-secretase Aβ fluorogenic substrate” value is 58.1 µM/min.

B2: ASec-1B scFv (scFv)
scFv: DVLMETTQTPLTLSVTIGQPASISCKSSQSLLHTDGKTYLIWLLQRPGQSPKRLIYLVSKLDSGVPDRFTGSGSGTDFTLKISRVEAEDLGVYYCWQGTHFPQTFGGGTKLEIKRADAAPGGGGSGGGGSGGGGSGSESGGGLVKPGGSLKLSCAASGFAFSIYGMETSWFRQTPEKRLEWVATISGGDTYTYYPDSVKGRFTISRDNAKNNLFLQMETSSLRSEDTPLYFCGRSQKLHPWGQGLVTVSA
On to B2, for which the “specificity constant (kcat/KM) relative to parent ASec-1 scFv” value in test [1] was determined as 2.8 fold. For the same molecule, in test [2], the “kcat (per min), hydrolysis of α-secretase Aβ fluorogenic substrate” value turned out to be 61 per min and the “kcat/Km (µM/min), hydrolysis of α-secretase Aβ fluorogenic substrate” value is 40.4 µM/min.
